In patent publication US11965039B2, “Compstatin analogues and their medical uses” (priority 2018, dated 2024):
Starred links: 1 amine or outer side, 2 acyl side, 3 side chain; linkers in the order of their positions; H or OH if unused. Positions of bridges follow the written chain, without caps; N, C: chain ends. Non-standard residues stand in square brackets, D forms with d. Groups on a side chain read outwards from the residue. *: point of attachment. X1 = K(γGlu-G-γGlu-17-carboxy-heptadecanoyl), O=C(O)CCCCCCCCCCCCCCCCC(=O)N[C@@H](CCC(=O)NCC(=O)N[C@@H](CCC(=O)NCCCC[C@H](N[*:1])C(=O)[*:2])C(=O)O)C(=O)O; Trp(1-Me) = Cn1cc(C[C@H](N)C(=O)O)c2ccccc21; C18 diacid = O=C(O)CCCCCCCCCCCCCCCCC(=O)*; C16 diacid = O=C(O)CCCCCCCCCCCCCCC(=O)*; γGlu = O=C(O)[C@H](CCC(=O)[*:2])N[*:1]; AEEA = NCCOCCOCC(=O)O; Sar = CNCC(=O)O

B1: Compound 132 (peptide)
peptide: Ac-SEFCI[Trp(1-Me)]QDWGEHRC[Sar]EK[γGlu]GGGK([γGlu-Gly-γGlu-C18 diacid])-NH2
modifications: disulfide 4-14
SMILES: CC[C@H](C)[C@@H]1NC(=O)[C@@H](NC(=O)[C@H](Cc2ccccc2)NC(=O)[C@H](CCC(=O)O)NC(=O)[C@H](CO)NC(C)=O)CSSC[C@@H](C(=O)N(C)CC(=O)N[C@@H](CCC(=O)O)C(=O)N[C@@H](CCCCN)C(=O)N[C@@H](CCC(=O)NCC(=O)NCC(=O)NCC(=O)N[C@@H](CCCCNC(=O)CC[C@H](NC(=O)CNC(=O)CC[C@H](NC(=O)CCCCCCCCCCCCCCCCC(=O)O)C(=O)O)C(=O)O)C(N)=O)C(=O)O)NC(=O)[C@H](CCCNC(=N)N)NC(=O)[C@H](Cc2c[nH]cn2)NC(=O)[C@H](CCC(=O)O)NC(=O)CNC(=O)[C@H](Cc2c[nH]c3ccccc23)NC(=O)[C@H](CC(=O)O)NC(=O)[C@H](CCC(N)=O)NC(=O)[C@H](Cc2cn(C)c3ccccc23)NC1=O
B2: Compound 133 (peptide)
peptide: Ac-SEFCI[Trp(1-Me)]QDWGEHRCTEK[γGlu]GGGK([γGlu-Gly-γGlu-C18 diacid])-NH2
modifications: disulfide 4-14
SMILES: CC[C@H](C)[C@@H]1NC(=O)[C@@H](NC(=O)[C@H](Cc2ccccc2)NC(=O)[C@H](CCC(=O)O)NC(=O)[C@H](CO)NC(C)=O)CSSC[C@@H](C(=O)N[C@H](C(=O)N[C@@H](CCC(=O)O)C(=O)N[C@@H](CCCCN)C(=O)N[C@@H](CCC(=O)NCC(=O)NCC(=O)NCC(=O)N[C@@H](CCCCNC(=O)CC[C@H](NC(=O)CNC(=O)CC[C@H](NC(=O)CCCCCCCCCCCCCCCCC(=O)O)C(=O)O)C(=O)O)C(N)=O)C(=O)O)[C@@H](C)O)NC(=O)[C@H](CCCNC(=N)N)NC(=O)[C@H](Cc2c[nH]cn2)NC(=O)[C@H](CCC(=O)O)NC(=O)CNC(=O)[C@H](Cc2c[nH]c3ccccc23)NC(=O)[C@H](CC(=O)O)NC(=O)[C@H](CCC(N)=O)NC(=O)[C@H](Cc2cn(C)c3ccccc23)NC1=O
B3: Compound 8 (peptide)
peptide: Ac-ICIWQKWGAHRCTGAES-NH2
modifications: disulfide 2-12
SMILES: CC[C@H](C)[C@H](NC(C)=O)C(=O)N[C@H]1CSSC[C@@H](C(=O)N[C@H](C(=O)NCC(=O)N[C@@H](C)C(=O)N[C@@H](CCC(=O)O)C(=O)N[C@@H](CO)C(N)=O)[C@@H](C)O)NC(=O)[C@H](CCCNC(=N)N)NC(=O)[C@H](Cc2c[nH]cn2)NC(=O)[C@H](C)NC(=O)CNC(=O)[C@H](Cc2c[nH]c3ccccc23)NC(=O)[C@H](CCCCN)NC(=O)[C@H](CCC(N)=O)NC(=O)[C@H](Cc2c[nH]c3ccccc23)NC(=O)[C@H]([C@@H](C)CC)NC1=O
B4: Compound 134 (peptide)
peptide: Ac-EFCI[Trp(1-Me)]QDWGEHRCEGEK([γGlu-Gly-γGlu-C18 diacid])-NH2
modifications: disulfide 3-13
SMILES: CC[C@H](C)[C@@H]1NC(=O)[C@@H](NC(=O)[C@H](Cc2ccccc2)NC(=O)[C@H](CCC(=O)O)NC(C)=O)CSSC[C@@H](C(=O)N[C@@H](CCC(=O)O)C(=O)NCC(=O)N[C@@H](CCC(=O)O)C(=O)N[C@@H](CCCCNC(=O)CC[C@H](NC(=O)CNC(=O)CC[C@H](NC(=O)CCCCCCCCCCCCCCCCC(=O)O)C(=O)O)C(=O)O)C(N)=O)NC(=O)[C@H](CCCNC(=N)N)NC(=O)[C@H](Cc2c[nH]cn2)NC(=O)[C@H](CCC(=O)O)NC(=O)CNC(=O)[C@H](Cc2c[nH]c3ccccc23)NC(=O)[C@H](CC(=O)O)NC(=O)[C@H](CCC(N)=O)NC(=O)[C@H](Cc2cn(C)c3ccccc23)NC1=O
B5: Compound 138 (peptide)
peptide: Ac-SEFCI[Trp(1-Me)]QDWGEHRC[Sar]EGE-{AEEA-X1-NH2}
modifications: disulfide 4-14
SMILES: CC[C@H](C)[C@@H]1NC(=O)[C@@H](NC(=O)[C@H](Cc2ccccc2)NC(=O)[C@H](CCC(=O)O)NC(=O)[C@H](CO)NC(C)=O)CSSC[C@@H](C(=O)N(C)CC(=O)N[C@@H](CCC(=O)O)C(=O)NCC(=O)N[C@@H](CCC(=O)O)C(=O)NCCOCCOCC(=O)N[C@@H](CCCCNC(=O)CC[C@H](NC(=O)CNC(=O)CC[C@H](NC(=O)CCCCCCCCCCCCCCCCC(=O)O)C(=O)O)C(=O)O)C(N)=O)NC(=O)[C@H](CCCNC(=N)N)NC(=O)[C@H](Cc2c[nH]cn2)NC(=O)[C@H](CCC(=O)O)NC(=O)CNC(=O)[C@H](Cc2c[nH]c3ccccc23)NC(=O)[C@H](CC(=O)O)NC(=O)[C@H](CCC(N)=O)NC(=O)[C@H](Cc2cn(C)c3ccccc23)NC1=O
B6: Compound 129 (peptide)
peptide: Ac-SEFCI[Trp(1-Me)]QDWGEHRC[Sar]EGEGGGK([γGlu-Gly-γGlu-C18 diacid])-NH2
modifications: disulfide 4-14
SMILES: CC[C@H](C)[C@@H]1NC(=O)[C@@H](NC(=O)[C@H](Cc2ccccc2)NC(=O)[C@H](CCC(=O)O)NC(=O)[C@H](CO)NC(C)=O)CSSC[C@@H](C(=O)N(C)CC(=O)N[C@@H](CCC(=O)O)C(=O)NCC(=O)N[C@@H](CCC(=O)O)C(=O)NCC(=O)NCC(=O)NCC(=O)N[C@@H](CCCCNC(=O)CC[C@H](NC(=O)CNC(=O)CC[C@H](NC(=O)CCCCCCCCCCCCCCCCC(=O)O)C(=O)O)C(=O)O)C(N)=O)NC(=O)[C@H](CCCNC(=N)N)NC(=O)[C@H](Cc2c[nH]cn2)NC(=O)[C@H](CCC(=O)O)NC(=O)CNC(=O)[C@H](Cc2c[nH]c3ccccc23)NC(=O)[C@H](CC(=O)O)NC(=O)[C@H](CCC(N)=O)NC(=O)[C@H](Cc2cn(C)c3ccccc23)NC1=O
B7: Compound 131 (peptide)
peptide: Ac-SEFCI[Trp(1-Me)]QDWGEHRCTEGEGGGK([γGlu-Gly-γGlu-C16 diacid])-NH2
modifications: disulfide 4-14
SMILES: CC[C@H](C)[C@@H]1NC(=O)[C@@H](NC(=O)[C@H](Cc2ccccc2)NC(=O)[C@H](CCC(=O)O)NC(=O)[C@H](CO)NC(C)=O)CSSC[C@@H](C(=O)N[C@H](C(=O)N[C@@H](CCC(=O)O)C(=O)NCC(=O)N[C@@H](CCC(=O)O)C(=O)NCC(=O)NCC(=O)NCC(=O)N[C@@H](CCCCNC(=O)CC[C@H](NC(=O)CNC(=O)CC[C@H](NC(=O)CCCCCCCCCCCCCCC(=O)O)C(=O)O)C(=O)O)C(N)=O)[C@@H](C)O)NC(=O)[C@H](CCCNC(=N)N)NC(=O)[C@H](Cc2c[nH]cn2)NC(=O)[C@H](CCC(=O)O)NC(=O)CNC(=O)[C@H](Cc2c[nH]c3ccccc23)NC(=O)[C@H](CC(=O)O)NC(=O)[C@H](CCC(N)=O)NC(=O)[C@H](Cc2cn(C)c3ccccc23)NC1=O

Molecular target: Human C3 (Complement tech cat #A113c) (human, UniProt P01024 23-1663)
Sequence (P01024 23-1663 limits assumed): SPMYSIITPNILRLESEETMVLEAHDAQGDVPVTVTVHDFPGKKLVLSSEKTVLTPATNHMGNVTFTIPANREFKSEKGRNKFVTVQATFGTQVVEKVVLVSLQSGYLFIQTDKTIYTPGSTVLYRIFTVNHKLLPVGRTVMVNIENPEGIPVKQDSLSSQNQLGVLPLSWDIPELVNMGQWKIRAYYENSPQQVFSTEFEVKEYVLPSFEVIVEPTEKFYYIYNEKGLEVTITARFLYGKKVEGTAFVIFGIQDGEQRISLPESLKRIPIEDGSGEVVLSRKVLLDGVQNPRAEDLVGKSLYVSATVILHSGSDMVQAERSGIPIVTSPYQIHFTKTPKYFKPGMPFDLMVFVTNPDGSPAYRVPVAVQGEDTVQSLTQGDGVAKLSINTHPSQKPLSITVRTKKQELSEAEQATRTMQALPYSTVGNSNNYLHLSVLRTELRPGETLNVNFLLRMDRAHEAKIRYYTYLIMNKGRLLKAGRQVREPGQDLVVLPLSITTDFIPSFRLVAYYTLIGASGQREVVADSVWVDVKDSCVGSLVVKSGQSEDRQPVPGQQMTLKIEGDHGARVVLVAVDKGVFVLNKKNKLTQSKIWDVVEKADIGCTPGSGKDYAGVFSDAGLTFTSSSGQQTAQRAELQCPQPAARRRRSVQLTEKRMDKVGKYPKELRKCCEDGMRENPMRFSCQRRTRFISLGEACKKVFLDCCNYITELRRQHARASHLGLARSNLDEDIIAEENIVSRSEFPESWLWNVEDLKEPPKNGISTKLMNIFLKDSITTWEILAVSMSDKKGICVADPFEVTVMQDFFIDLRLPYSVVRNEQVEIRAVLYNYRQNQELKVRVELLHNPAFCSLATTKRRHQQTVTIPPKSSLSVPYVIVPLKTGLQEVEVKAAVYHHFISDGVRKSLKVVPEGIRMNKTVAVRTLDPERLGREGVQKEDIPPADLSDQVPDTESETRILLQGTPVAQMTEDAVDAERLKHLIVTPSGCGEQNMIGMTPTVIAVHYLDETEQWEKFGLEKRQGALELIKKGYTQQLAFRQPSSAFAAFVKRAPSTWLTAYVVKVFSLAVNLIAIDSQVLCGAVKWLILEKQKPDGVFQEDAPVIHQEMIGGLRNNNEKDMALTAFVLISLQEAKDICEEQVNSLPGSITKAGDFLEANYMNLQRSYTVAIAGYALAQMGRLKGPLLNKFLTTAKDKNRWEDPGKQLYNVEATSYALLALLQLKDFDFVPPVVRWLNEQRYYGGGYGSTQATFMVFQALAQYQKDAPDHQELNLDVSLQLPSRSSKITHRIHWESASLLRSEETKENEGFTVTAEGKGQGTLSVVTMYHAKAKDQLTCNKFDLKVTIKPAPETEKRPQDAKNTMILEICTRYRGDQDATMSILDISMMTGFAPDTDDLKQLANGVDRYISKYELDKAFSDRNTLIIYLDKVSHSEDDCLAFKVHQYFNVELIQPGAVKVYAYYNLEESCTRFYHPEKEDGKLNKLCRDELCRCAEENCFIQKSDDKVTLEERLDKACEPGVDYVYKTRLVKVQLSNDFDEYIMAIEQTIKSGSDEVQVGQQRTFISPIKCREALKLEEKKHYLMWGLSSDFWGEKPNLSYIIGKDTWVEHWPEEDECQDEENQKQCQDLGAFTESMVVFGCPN
Assay: cell-based or functional assay

Row | Binder | inhibition of hemolysis IC50
1 | Ac-SEFCI[Trp(1-Me)]QDWGEHRCTGAESK([γGlu-Gly-γGlu-15‑carboxy‑hexadecanoyl])-NH2 (disulfide 4-14) [Compound 135] | < 100 nM
2 | Ac-SEFCI[Trp(1-Me)]QDWGEHRCTEGE-{8‑aminooctanoyl-Glu-X1-NH2} (disulfide 4-14) [Compound 137] | < 100 nM
3 | B1 | < 100 nM
4 | B2 | < 100 nM
5 | B3 | < 500 nM
6 | B4 | < 100 nM
7 | B5 | < 100 nM
8 | B6 | < 100 nM
9 | Ac-SEFCI[Trp(1-Me)]QDWGEHRCTEGE-{8‑aminooctanoyl-X1-NH2} (disulfide 4-14) [Compound 136] | < 100 nM
10 | B7 | < 100 nM
